Laboratory results as given in article PMC4437517.

Legend:
Assay type in all cases: biochemical, Arabidopsis thaliana
[1] = substrate: O=[N+]([O-])c1ccc(OP(=O)(O)O)cc1; experiment: phosphatase assay, non-linear fit; details: pH 5.0, no metal, 37 °C
[2] = substrate: N[C@@H](Cc1ccc(OP(=O)(O)O)cc1)C(=O)O; experiment: Malachite Green phosphate release, non-linear fit; details: pH 5.0, no metal, 37 °C, substrate inhibition above 3.0 mM
[3] = substrate: Nc1ncnc2c1ncn2[C@@H]1O[C@H](COP(=O)(O)OP(=O)(O)OP(=O)(O)O)[C@@H](O)[C@H]1O; experiment: Malachite Green phosphate release, non-linear fit; details: pH 5.0, no metal, 37 °C

B1: At1g05000 (Arabidopsis thaliana; M1S) (protein)
chain: SKLVEKTTTTEQDNGEDFCRTIIEVSEVNRNVFQAPGGEADPFRVVSGEELHLIPPLNFSMVDNGIFRSGFPDSANFSFLQTLGLRSIIYLCPEPYPESNLQFLKSNGIRLFQFGIEGNKEPFVNIPDHKIRMALKVLLDEKNHPVLIHCKRGKHRTGCLVGCLRKLQKWCLTSIFDEYQRFAAAKARVSDQRFMEIFDVSSFSHIPMSFSCSIR
Km [1]: 670 ± 140 µM | Vmax [1]: 0.64 µmol/min/mg | kcat [1]: 0.26 ± 0.02 s⁻¹ | kcat/Km [1]: 392 M⁻¹ s⁻¹ | Km [2]: 880 ± 100 µM | Vmax [2]: 0.19 µmol/min/mg | kcat [2]: 0.077 ± 0.004 s⁻¹ | kcat/Km [2]: 87.5 M⁻¹ s⁻¹ | Km [3]: 480 ± 50 µM | Vmax [3]: 1.52 µmol/min/mg | kcat [3]: 0.62 ± 0.02 s⁻¹ | kcat/Km [3]: 1290 M⁻¹ s⁻¹
